In patent US20260167718A1 (Merck Sharp & Dohme, published 2026):
Like-named read-outs stand apart in the source and are kept apart here.

T1: rhesus ILT3-His tagged recombinant protein (rhesus monkey (Macaca mulatta))
T1 construct: also called ILT3_MM; not shown: His tag
T1 chain: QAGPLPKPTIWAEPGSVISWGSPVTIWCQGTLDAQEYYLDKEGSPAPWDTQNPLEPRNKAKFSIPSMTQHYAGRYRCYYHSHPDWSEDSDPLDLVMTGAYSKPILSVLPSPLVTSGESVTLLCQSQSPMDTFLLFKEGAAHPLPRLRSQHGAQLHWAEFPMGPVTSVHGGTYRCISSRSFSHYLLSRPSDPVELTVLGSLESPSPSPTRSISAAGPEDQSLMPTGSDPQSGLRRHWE


Key:
[1] = molecular target: T2, human ILT3 expressed on cells (human, UniProt Q8NHJ6 22-448); assay: cELISA, CHO human ILT3 cells
T2 construct: whole, on cells; also called huILT3; LILRB4
Description: (§1) Mouse anti-human ILT3 antibodies were tested for binding to human ILT3, and cross-reactivity to Rhesus monkey ILT3, human ILT5, human ILT7, human ILT8, and human ILT11 expressing CHO-K1 cells using a cell-based ELISA format. CHO-K1 cells were plated in 96-well tissue-culture plates in 50 μL of DMEM/F12, 10% BCS and gentamycin (CHO-K1 media). Cells were plated at either 2×10⁴ cells/well two days prior to the assay or 4×10⁴ cells/well one day prior to the assay. Media was removed from the wells prior to adding the test samples. Purified antibody was serially-diluted in CHO-K1 media and added to the CHO-K1 plates. The samples were incubated at room temperature for 30-60 minutes and plates were washed three times with PBS/05% Tween-20 using the cell wash program on the Biotek EL405x Select CW plate washer. Binding was detected using an HRP-conjugated goat anti-mouse IgG (Southern Biotech cat #1031-05) secondary antibody added at a 1:2000 dilution in CHO-K1 media and incubated at room temperature for 30-60 minutes. Assay plates were washed as above and developed with TMB and stopped with TMB stop solution (KPL cat #50-85-06). The absorbance at 450 nm—620 nm was determined. Mouse IgG1 (MIgG1) served as a control.

[2] = molecular target: T2, human ILT3 expressed on cells; assay: cELISA, CHO human ILT3 cells; remark: listed apart in the source
[3] = molecular target: T3, Human ILT3 (LILRB4) extracellular domain with C-terminal His Tag (human, UniProt Q8NHJ6 22-259); assay: SPR (Biacore), human ILT3-His
T3 construct: the claims count residues 1-238 as the extracellular domain; also called human ILT3-His; ILT3_H

[4] = molecular target: T4, Rhesus monkey ILT3 expressed on CHO-K1 cells (rhesus monkey (Macaca mulatta)); assay: cELISA, CHO rhesus ILT3 cells
T4 construct: whole, on cells; also called rhILT3; CHO-rhesus ILT3
Description: as §1

[5] = molecular target: T3, Human ILT3 (LILRB4) extracellular …; assay: SPR (Biacore), human ILT3-His; remark: listed apart in the source
[6] = molecular target: T4, Rhesus monkey ILT3 expressed on CHO-K1 …; assay: cELISA, CHO rhesus ILT3 cells; remark: listed apart in the source
[7] = molecular target: T1, rhesus ILT3-His tagged recombinant …; assay: SPR (Biacore), rhesus ILT3-His
[8] = molecular target: T1, rhesus ILT3-His tagged recombinant …; assay: SPR (Biacore), rhesus ILT3-His
How it was run: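 Antibodies captured on anti-human Fc surface, with human or rhesus ILT3-His as analyte in HBS-EP+ running buffer; reference flow cell subtracted, regeneration with 3M MgCl₂. ka and kd obtained from 1:1 Langmuir fits, KD = kd/ka.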

[9] = molecular target: T2, human ILT3 expressed on cells; assay: cell-based ELISA on CHO-K1 cells expressing human ILT3, HRP anti-mouse IgG, OD 450-650 nm
[10] = molecular target: T5, human ILT8 expressed on CHO-K1 cells (human, UniProt Q6PI73 24-481); assay: cell-based ELISA on CHO-K1 cells expressing human ILT8, HRP anti-mouse IgG, OD 450-650 nm
T5 construct: whole, on cells; also called CHO-ILT8
T5 sequence (Q6PI73 24-481): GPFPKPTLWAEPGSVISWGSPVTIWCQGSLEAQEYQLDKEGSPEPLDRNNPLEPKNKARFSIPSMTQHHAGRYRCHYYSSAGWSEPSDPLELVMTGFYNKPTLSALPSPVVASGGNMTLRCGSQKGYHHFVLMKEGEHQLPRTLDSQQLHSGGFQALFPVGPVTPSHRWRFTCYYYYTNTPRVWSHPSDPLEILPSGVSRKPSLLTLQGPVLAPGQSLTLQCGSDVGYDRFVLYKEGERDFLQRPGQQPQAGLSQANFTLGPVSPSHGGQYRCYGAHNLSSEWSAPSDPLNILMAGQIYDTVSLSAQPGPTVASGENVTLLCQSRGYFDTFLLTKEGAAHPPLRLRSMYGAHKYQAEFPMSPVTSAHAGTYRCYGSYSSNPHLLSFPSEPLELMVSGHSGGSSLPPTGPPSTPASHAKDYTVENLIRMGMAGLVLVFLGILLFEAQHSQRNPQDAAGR
Description: as §1, with “The absorbance at 450 nm—620 nm was determined.” left out

[11] = molecular target: T4, Rhesus monkey ILT3 expressed on CHO-K1 …; assay: cell-based ELISA on CHO-K1 cells expressing Rhesus monkey ILT3, HRP anti-mouse IgG, OD 450-650 nm
[12] = molecular target: T2, human ILT3 expressed on cells; assay: cell-based or functional assay

| EC50 [1] | EC50 [2] | Kd [3] | EC50 [4] | Kd [5] | EC50 [6] | Kd [7] | Kd [8] | EC50 (read off the curve) [9] | EC50 (read off the curve) [10] | EC50 (read off the curve) [11] | binding result [7] | TNFα secretion by human monocyte-derived dendritic cells polarized with IL-10 and LPS; concentration giving half of the maximal increase (EC50) [12] | Binder |
| --- | --- | --- | --- | --- | --- | --- | --- | --- | --- | --- | --- | --- | --- |
| 0.0214 mg/L | 21.4 mg/L | 0.0205 nM | 0.0231 mg/L | 0.021 nM | 21.3 mg/L | 0.126 nM | 0.126 nM |  |  |  |  |  | Rat anti-ILT3 mAb 24A4 IgG2a/Kappa (antibody, V domains shown, Rat IgG2a/Kappa; also called p24A4; LB184.24A4.1A1) VH: QVQLKESGPGLVQASETLSLTCTVSGFSLTSYCVNWVRQPSGKGPEWLGRFWYDEGKVYNLTLESRLSISGDTSKNQVFLKMNRLRTDDTGTYYCTRDRDTLGITGWFAYWGQGTLVTVSS VL: ETVMTQSPTSLSASIGERVTLNCKASQSVGINVDWYQQTPGQSPKLLIYGSANRHTGVPDRFTGSGFGSGFTLTISNVEPEDLGVYYCLQYGSVPYTFGPGTKLELK |
| 0.002 mg/L | 1.99 mg/L | 6.99 nM | 0.018 mg/L | 6.99 nM | 18 mg/L | 18 nM | 18.2 nM |  |  |  |  |  | Rat anti-ILT3 mAb 20E4 IgG2a/Kappa (antibody, V domains shown, Rat IgG2a/Kappa; also called p20E4; LB184.20E4.1E1.1D1) VH: QVQLKESGPGLVQASETLSLTCTVSGFSLTSYSVNWVRQPSGKGLEWMGRFWYDGGTAYNSTLESRLSISGDTSKNQVFLKMNSLQTDDTGTYYCTRDRDTMGITGWFAYWGQGTLVTVSP VL: ETVMTQSPTSLSASIGERVTLNCKASQSVGVNVDWYQQTPGQSPKLLIYGSANRHTGVPDRFTGSGFGSDFTLTISNVEPEDLGVYYCLQYGSVPYTFGAGTKLELK |
| 0.0649 mg/L |  | 0.0957 nM | 0.0679 mg/L | 0.096 nM |  | 0.259 nM | 0.259 nM |  |  |  |  |  | Rat anti-ILT3 mAb 16B1 IgG2a/Kappa (antibody, V domains shown, Rat IgG2a/Kappa; also called p16B1; LB184.16B1.1D2) VH: QVQLKESGPGLVQASETLSLTCTVSGFSLTNYCVNWVRQPSGKGPEWLGRFWFDEGKAYNLTLESRLSISGDTSKNQVFLRMNSLRADDTGTYYCTRDRDTVGITGWFAYWGQGTLVTVSS VL: ETVMTQSPTSLSASIGERVTLNCKASQSVGINVDWYQQTPGQSPKLLIYGSANRHTGVPDRFTGSGFGSDFTLTISNVEPEDLGVYYCLQYGSVPYTFGPGTKLELK |
| 0.0077 mg/L | 7.72 mg/L | 0.0118 nM | 0.0095 mg/L | 0.012 nM | 9.48 mg/L | 0.15 nM | 0.145 nM |  |  |  |  |  | Rat anti-ILT3 mAb 37C8 IgG2a/Kappa (antibody, V domains shown, Rat IgG2a/Kappa; also called p37C8; LB184.37C8.1A3.1B1) VH: QVQLKESGPGLVQASETLSLTCTVSGFSLTSYCVNWVRQPSGKGPEWLGRFWYDEGKVYNLTLESRLSISGDTSKNQVFLKMNRLRTDDTGTYYCTRDRDTMGITGWFAYWGQGTLVTVSS VL: ETVMTQSPTSLSASIGERVTLNCKASQSVGINVDWYQQTPGQSPKLLIYGSANRHTGVPDRFTGSGFGSGFTLTISNVEPEDLGVYYCLQYGSVPYTFGPGTKLELK |
|  |  |  |  |  |  |  |  | ~0.02 mg/L | ~0.02 mg/L | ~0.05 mg/L |  |  | humanized anti-ILT3 monoclonal antibody 9B11 (antibody, V domains shown) VH: EVQLVESGGGLVKPGGSLRLSCAASGFAFSSYDMSWVRQAPGKGLEWVSTISSSGSYTYYPDSVKGRFTISRDNAKNSLYLQMNSLRAEDTAVYYCARLWGAMDYWGQGTLVTVSS VL: DIQMTQSPSSLSASVGDRVTITCRASQGLTNDLHWYQQKPGKAPKRLIYYASQSISGVPSRFSGSGSGTEFTLTISSLQPEDFATYYCQQSNSWPFTFGQGTKLEIK |
| 0.0392 mg/L | 39.2 mg/L | 16.9 nM |  |  |  |  |  |  |  |  | no binding |  | Mouse anti-ILT3 mAb 1G12 IgG2a/Kappa (antibody, V domains shown, Mouse IgG2a/Kappa; also called p1G12; LB182.1G12.1B1) VH: QVQMQQSGTELMKPGASMKISCKATGYTFSTYWIQWIKQRPGHGLEWIGEILPGSGTTNYNENFKGKATFSADTSSNTAYIHLSSLTSEDSAVFYCARRLGRGPFDYWGQGTTLTVSS VL: DIQMTQSPSSLSASLGGKVTITCEASQDINKHIDWYQHQPGRGPSLLIHYASILQPGIPSRFSGSGSGRDYSFSITSLEPEDIATYYCLQYDNLLPTFGGGTKLEIK |
|  | 0.064 mg/L |  |  | 0.46 nM | 0.091 mg/L |  | 9.5 nM |  |  |  |  | ~0.0019 mg/L | Chimeric anti-ILT3 52B8 mouse VH/human IgG4 (S228P):mouse VL/human Kappa (antibody, also called mAb 73; c52B8) heavy: not shown light: NIVLTQSPASLAVSLGQRATISCRASEKVDSFGNSFMHWYQQKPGQPPKLLIYLTSNLDSGVPARFSGSGSRTDFALTIDPVEADDAATYYCQQNNEDPYTFGGGTKLEIKRTVAAPSVFIFPPSDEQLKSGTASVVCLLNNFYPREAKVQWKVDNALQSGNSQESVTEQDSKDSTYSLSSTLTLSKADYEKHKVYACEVTHQGLSSPVTKSFNRGEC |
| 0.139 mg/L | 139 mg/L | 0.592 nM |  |  |  |  |  |  |  |  | no binding |  | Rat anti-ILT3 mAb 17H12 IgG1/Kappa (antibody, V domains shown, Rat IgG1/Kappa; also called p17H12; LB190.17H121A1) VH: EVQLVESGGGLVQPGRSMKLSCAASGFTFSNFDMAWVRQAPTRGLEWVSSITYDGGSTSYRDSVKGRFTISRDNAKGTLYLQMDSLRSEDTATYYCTTVESIATISTYFDYWGQGVMVTVSS VL: DIVLTQSPALAVSLGQRATISCRASQSVSMSRYDLIHWYQQKPGQQPKLLIFRASDLASGIPARFSGSGSGTDFTLTINPVQADDIATYYCQQTRKSPPTFGGGTRLELK |
